Reference: publication PMC8776730 (Nature Communications, 2022)

Columns and labels:
MIA PaCa-2 cells = assay: Cytotoxicity, CCK-8 assay; format: cell-based; conditions: CCK-8, 24 h, at high concentration of 300 μM
Procedure: The cytotoxicity of M1 and M2 was evaluated using CCK-8 assay in MIA PaCa-2 cells. Cells were seeded into 96-well plates at a density of 5 × 10^4 cells per well and placed in an incubator for 14 h. Subsequently, the sample was diluted into a series of different concentrations (0, 50, 100, 150, 200, 250, 300, and 350 μM) and incubated with cells for 24 h. After that, 10 μL of CCK-8 solution was added to each well and incubated for 2 h. The absorbance of blank wells (Ab), sample wells (As) and control wells (Ac) were measured with a microplate reader at a test wavelength of 450 nm and a reference wavelength of 690 nm. The cell viability rate (%) is equal to (As -Ab) / (Ac -Ab) ×100%. All experiments were repeated in triplicate.
Supplementary Fig. 21∣ Cellviability assay of Miapaca-2 cells treated with a series concentration of M1 and M2 for 24 h.
Tested by Cell Counting Kit-8 (Beyotime, C0039) The mean of results of six parallel experiments isshown and data were
expressed as mean ± SD (n=6).
(§1) (1 picture or pasted object on this page, not shown here)

MIA PaCa-2 tumor [1] = conditions: mouse, in vivo, 16 mg/kg
Procedure: In order to reduce systemic error and individual difference, we constructed the subcutaneous pancreatic cancer model in mice for quantitatively calculating of the metabolic data.
All the animal experiments were performed in accordance with the Guide for the Care and Use of Laboratory Animals approved by the Committee for Animal Research of the National Center for Nanoscience and Technology. The MIA PaCa-2 tumor-bearing mice were intravenously injected with ICG, M1 and M2 (16 mg/kg), respectively for in vivo fluorescence imaging with in vivo spectrum imaging system. Finally, mice were sacrificed to collect the major organs and tumors for ex vivo fluorescence imaging.

[2] = test system: orthotopic pancreatic tumor (MIA PaCa-2); assay: Ex vivo organ biodistribution, orthotopic pancreatic tumor model; conditions: orthotopic tumor mice, i.v. 16 mg/kg, 12 h
Procedure: (§2) To evaluate the imaging property of BIVA probe, the orthotopic pancreatic tumor mice model was built. After intravenous injected M1 and M2 molecules with a dose of 16 mg/kg for 12 h, the mice were sacrificed. […] Then, all the important organs were dissected for ex vivo imaging. […] Upon the individual differences, we validated 6 mice under surgery to induce orthotopic tumor in pancreatic head. […] As known, the FAP-α was a membrane located protein, overexpressed on tumor associate fibroblast cell and pancreatic cell surface.

[3] = test system: orthotopic pancreatic tumor (MIA PaCa-2); assay: Signal in small orthotopic tumor area versus healthy spleen area; format: in vivo; conditions: orthotopic pancreatic tumor mice, i.v. 16 mg/kg, 12 h
Procedure: as §2

MIA PaCa-2 tumor [4] = assay: In vivo photoacoustic imaging; parameters: species or system mice; conditions: 12 h after i.v. injection, 16 mg/kg
Procedure: The MIA PaCa-2 tumor-bearing mice were constructed for in vivo photoacoustic imaging of M1. After intravenously injected with M1 (16 mg/kg) through tail vein, the PA images of mice were acquired with MOST (mode: MOST invision 128) at 12 h post injection.
Supplementary Fig. 22∣ 3D reconstruction PA images of tumor-bearing mice injected with M1 (16 mg/kg) through tail
vein.PA images of mice were acquired with MOST (mode: MOST 128) at 12 h post injection.
as §1

[5] = parameters: species or system mice; conditions: mouse, in vivo, iv, 16 mg/kg
Description: The acute toxicity evaluation of M1 to mice were verified by blood biochemistry, hemograms, and histological analysis. The representative biomarkers of liver function included alanine aminotransferase (ALT), alkaline phosphatase (ALP), aspartate aminotransferase (AST), total protein (TP), and albumin concentration (ALB). […] In addition, the hematological assessment results including creatinine (CREA), white blood cells (WBC), red blood cells (RBC), hematocrit (HCT), mean corpuscular volume […], mean corpuscular hemoglobin […], mean corpuscular hemoglobin concentration (MCHC), red cell volume distribution width-coefficient of variation (RDW-CV), platelet (PLT)and mean platelet volume (MPV) were carried out (Fig. 8b). All the above indicators in PBS group and M1 group appeared normal, which was basically consistent with the normal range reported in the literature. Then the mice from PBS group and M1 group were sacrificed for the further histological section analysis of the significant organs. After Hematoxylin and Eosin (H&E) staining, the slices of heart, liver, spleen, lung, kidney, and pancreas were compared and evaluated (Fig. 8c).
Fig. 8 Acute toxicity evaluation. a Liver function indicators: alanine aminotransferase (ALT), alkaline phosphatase (ALP), aspartate aminotransferase (AST), total protein (TP) and albumin concentration (ALB). […] Staining: H&E; Injection dose of M1. (i.v. administration): 16 mg/kg; Administration time: 24 h. Scale bar 200 μm.
The female Balb/c nude mice (6–8 weeks, n = 3) were sacrificed for blood and major organs collection after treated with M1 at a dose of 16 mg/kg on the 24 h. The histology evaluation of major organs was performed by Google biotechnology (Wuhan) Co. LTD. The blood biochemistry and haematology analyses were carried out by Vital River Laboratory Animal Technology Co. Ltd.

mPEG-GPAKLVFFGC(IR783)GRGD [M1]
cytotoxicity (MIA PaCa-2 cells): no obvious cytotoxicity | AUC 0-120 h in tumor tissue relative to M2 (MIA PaCa-2 tumor [1]): 3.6 times | reduction of tumor fluorescence signal between 12 h and 120 h (MIA PaCa-2 tumor [1]): 27.6% | time to peak of tumor signal (MIA PaCa-2 tumor [1]): ~12 h | retention in tumor lasted (MIA PaCa-2 tumor [1]; iv): up to 96 h | signal accumulation in tumor relative to M2 [2]: twice | Average radiant efficiency, spleen ([2]; average of n = 3): 203.333 P/sec | fluorescence signal on tumor relative to surrounding spleen tissue (signal-to-background) [3]: over 9 folds | accumulation in tumor by photoacoustic imaging (MIA PaCa-2 tumor [4]): more accumulation in tumor than that of M2 | hematological assessment (CREA, WBC, RBC, HCT, MCV, MCH, MCHC, RDW-CV, PLT, MPV) [5]: normal | hepatic toxicity (ALT, ALP, AST, TP, ALB) [5]: no obvious hepatic toxicity | organ damage in H&E slices of heart, liver, spleen, lung, kidney, pancreas [5]: no noticeable organ damage and tissue injury
